Experiments:
[1] = target: T1, phosphatidylserine decarboxylase (PSD) (Homo sapiens, UniProt Q9UG56); assay: MST interaction of purified SMAC with purified PSD; type: binding; settings: SMAC 1 μM, PSD 78-625 nM, 30 min at 37° C., read-out: dissociation constant (Kd) of PSD interaction with SMAC
T1 construct: Purified recombinant protein (full length) of human phosphatidylserine decarboxylase (PSD); His tag (N); purchased Acris-OriGene; host or cells: E. coli
T1 sequence (Q9UG56 53-409): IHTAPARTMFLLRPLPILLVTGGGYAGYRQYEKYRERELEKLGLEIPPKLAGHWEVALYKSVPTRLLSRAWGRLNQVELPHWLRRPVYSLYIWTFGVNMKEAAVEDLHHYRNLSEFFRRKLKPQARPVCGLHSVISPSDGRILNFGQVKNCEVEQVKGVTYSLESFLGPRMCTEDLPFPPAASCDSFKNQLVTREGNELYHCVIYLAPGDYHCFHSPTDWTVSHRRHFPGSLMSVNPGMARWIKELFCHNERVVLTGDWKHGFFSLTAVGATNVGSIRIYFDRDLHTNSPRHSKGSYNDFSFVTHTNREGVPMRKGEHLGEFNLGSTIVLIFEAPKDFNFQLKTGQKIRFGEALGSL
Experimental: (A) Representative IF images for SMAC and PSD colocalization in A549 cells. Scale bars represent 10, 2.5 μm, as indicated. (B) PLA assay showing direct interaction between SMAC and PSD in A549 cells (scale bar represent 10 μm). Immunoblot (C) and quantitative analysis cells (D) of PSD and SMAC expression levels relative to WI-38 (n=3). PSD activity (n=6) (E) and PE levels (n=6) (F) were analyzed in the indicated cell lines. (G) Purified PSD and SMAC used in this study. (H) PSD interaction with SMAC analyzed using the MST method (n=4). Purified SMAC was fluorescently labelled with the NanoTemper BLUE protein-labelling kit. SMAC (1 μM) was incubated with purified PISD (78-625 nM) for 30 min at 37° C., then thermophoresis was measured as described in the Materials and Methods section hereinbelow. […] (I) Inhibition of PSD activity by SMAC, as measured using the DSB-3 method (n=4). Results are the mean±SEM. *P≤0.05; **P≤0.01; ***P≤0.001; NS, nonsignificant.
(§1) Human recombinant SMAC (10339-H08E) was produced by Sino Biologicals (Wayne, PA, USA). […]
MST analysis was performed using a NanoTemper Monolith NT.115 apparatus as described earlier (Wienken C J, et al., 2010. Nat Commun 1, 100). […] After a 30-min incubation, 8 μl of the samples were loaded into a glass capillary (Monolith NT Capillaries), and thermophoresis was analyzed (LED 20%, IR laser 20%).

[2] = target: T1, phosphatidylserine decarboxylase (PSD); assay: PSD activity inhibition, DSB-3 method; type: biochemical; settings: read-out: IC50 of SMAC inhibiting PSD activity
Experimental: PE content in the lipid samples was measured as described previously (Choi J Y, et al. 2018. J Biol Chem 293, 1493-1503). Briefly, solvent was evaporated from the lipid samples under nitrogen gas, and samples were re-suspended in 0.8 mM Triton X-100. Sample aliquots were added to 96-well plates containing (50 μl) reaction mixture (80 mM NaCl, 2 mM K2HPO4, pH 7.4), and borate buffer (12.5 μl) (100 mM boric acid, 75 mM NaCl, 25 mM sodium tetraborate, pH 9). After mixing, 12.5 μl of 100 μM DSB-3, in 10 mM K2HPO4 (pH 7.4), were added and incubated for 2 h in the dark with shaking (100 rpm). Fluorescence was measured using excitation λex=403 nm and emission λem=508 nm. A calibration curve was obtained using PE (Biovision, CA) as a standard.
To determine PSD activity, purified enzyme (0.2-0.4 μM) or crude cell lysate (0.25-0.5 μg of protein) was incubated with PS (50 μM) for 45 min at 30° C. in the dark with shaking under the conditions described above for PE determination. PSD activity was measured by determining the PE produced as described above, except that the signal obtained in the absence of substrate PS (representing endogenous PE) was subtracted from the signal obtained in the presence of PS.
as §1

- Kd [1]: 246 nM
- IC50 [2]: 400 nM
B1: SMAC: Human recombinant SMAC (10339-H08E) produced by Sino Biologicals (protein)
chain: AVPIAQKSEPHSLSSEALMRRAVSLVTDSTSTFLSQTTYALIEAITEYTKAVYTLTSLYRQYTSLLGKMNSEEEDEVWQVIIGARAEMTSKHQEYLKLETTWMTAVGLSEMAAEAAYQTGADQASITARNHIQLVKLQVEEVHQLSRKAETKLAEAQIEELRQKTQEEGEERAESEQEAYLRED
